In patent publication US20200368258A1 (NORTHWESTERN UNIVERSITY, published 2020):
No end group written: not given here. *: point of attachment. FITC = O=C1OC2(c3ccc(O)cc3Oc3cc(O)ccc32)c2ccc(NC(=S)*)cc21

Biological target: T1, WWP2 recombinant protein (SEQ ID NO:24) (Homo sapiens (Human), UniProt O00308 1-870)
T1 construct: It was expressed with a pET28b His-tag/thrombin leader; also called WWP2 polypeptide; Nedd4 WWP2
Assay: fluorescence polarization, WWP2 dose-response up to 19.6 µM, FITC-peptide probe at 5 nM

T1 sequence (O00308 other isoform, or with tags, fused parts or gaps limits assumed): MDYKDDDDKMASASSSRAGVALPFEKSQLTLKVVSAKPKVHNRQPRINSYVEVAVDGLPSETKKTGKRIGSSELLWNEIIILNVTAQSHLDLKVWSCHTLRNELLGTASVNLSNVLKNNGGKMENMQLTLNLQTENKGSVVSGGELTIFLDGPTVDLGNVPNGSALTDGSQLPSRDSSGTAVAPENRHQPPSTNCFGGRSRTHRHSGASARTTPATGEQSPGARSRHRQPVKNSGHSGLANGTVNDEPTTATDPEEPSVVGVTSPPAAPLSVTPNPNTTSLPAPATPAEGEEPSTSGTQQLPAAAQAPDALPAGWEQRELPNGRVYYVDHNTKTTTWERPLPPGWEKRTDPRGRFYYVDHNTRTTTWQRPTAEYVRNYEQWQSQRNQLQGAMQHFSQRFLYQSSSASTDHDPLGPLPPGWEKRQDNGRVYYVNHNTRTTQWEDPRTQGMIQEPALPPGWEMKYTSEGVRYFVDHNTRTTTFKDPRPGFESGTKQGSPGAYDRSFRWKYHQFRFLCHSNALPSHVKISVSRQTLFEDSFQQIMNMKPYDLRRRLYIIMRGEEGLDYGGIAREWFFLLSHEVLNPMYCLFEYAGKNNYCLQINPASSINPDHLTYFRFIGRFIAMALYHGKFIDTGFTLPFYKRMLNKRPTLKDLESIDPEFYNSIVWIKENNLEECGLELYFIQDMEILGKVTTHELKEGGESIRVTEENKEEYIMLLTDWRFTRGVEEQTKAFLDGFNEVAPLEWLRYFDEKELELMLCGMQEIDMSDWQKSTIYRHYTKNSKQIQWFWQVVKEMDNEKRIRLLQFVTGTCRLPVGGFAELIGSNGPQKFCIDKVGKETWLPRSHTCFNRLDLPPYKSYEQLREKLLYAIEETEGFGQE

B1: FITC-labeled peptide probe with three tandem PY motif binding units derived from the p2 region of ASLV gag (SEQ ID NO:18) (peptide)
peptide: {FITC}-ATASAPPPYVGSGGGATASAPPPYVGSGGGATASAPPPYVGSGGGRRR
notes: Synthetic peptide (Biosynthesis, TX); also called FITC-peptide; FTIC-peptide
Kd: 200 nM
